Experiments:
lysozyme [1] = target: T1, lysozyme (Gallus gallus, UniProt P00698); assay: Fluorescence quenching studies; format: binding, chicken
T1 construct: lysozyme from chicken egg white; purchased Sigma-Aldrich; host or cells: chicken egg white (natural source)
Method: The fluorescence emission spectra of the HA-EGCG/lysozyme particles, HA/lysozyme mixtures, free lysozyme alone, free HA-EGCG carrier or free HA alone were measured at an excitation wavelength of 280 nm using a fluorescence spectrophotometer (Hitachi, Japan). Difference spectra between the HA-EGCG/lysozyme particles and HA-EGCG were obtained to determine the net fluorescence of lysozyme in particles of varying HA-EGCG concentrations. The same was done for HA/lysozyme mixtures.

lysozyme [2] = target: T1, lysozyme; assay: Lysozyme activity assay (M. lysodeikticus turbidity); format: biochemical, chicken
Method: To determine the activity of lysozyme, 20 μl of sample containing either free lysozyme or HA-EGCG/lysozyme particles was added to a well of a 96-well assay plate, followed by 100 μl of M. lysodeikticus (0.15% (w/v) in PBS). The decrease in turbidity was monitored by a Tecan Infinite 200 microplate reader by measuring the absorbance of the sample at 450 nm at room temperature every 3 min for 15 min. The absorbance decay plot was fitted to a linear equation, and the slopes were used to determine iysozyme activity. Regarding the restoration of activity of lysozyme that is complexed with HA-EGCG, the following protocol was used: the HA-EGCG/lysozyme particles were first allowed to self-assemble for 10 min at room temperature, with free lysozyme diluted with PBS as a control. A constant volume of Triton-X of different concentrations was then added to each sample (to a final concentration of 0.001, 0.01 or 0.1% w/v), incubated at room temperature for a further 5 min before the lysozyme substrate, M. lysodeikticus, was added, and the absorbance monitored as described above.

HCT-116 cells = assay: Cell viability studies (AlamarBlue); format: cell-based, human; settings: delivered together with chloroquine; data not shown
Method: HCT-116 human colon carcinoma cells were obtained from ATCC, and cultured in McCoy's 5A medium supplemented with 10% FBS and 100 units/mL of penicillin/streptomycin.
HCT-116 cells were seeded at 10,000 cells per well in 96-well microplates with complete growth medium and left to attach for 48 h. Test reagents were prepared by first mixing the linear PEI (polyethylenimine) or chloroquine solution (fixed at 100 μM)) with Granzyme B (fixed at 2 μg/ml) for 15 min before adding HA-EGCG solution to the mixture and allow complexation to take place for 45 min. The medium in the wells was then aspirated and the cells were treated with the respective reagents for 48 h (all dilutions were made in serum-free medium). Cell viability was analyzed using AlamarBlue. Before analysis, the medium was aspirated and the cells were gently washed with PBS once before a mixture of 10 μl of alamarblue reagent with 100 μl of serum-containing medium was added to each well. The cells were incubated for 2 h and the fluorescence emission of each well was measured using a Tecan infinite Microplate Reader. The viabilities of treated cells were evaluated as a percentage of the negative control. Each data set is an average of 4 repeats.

T1 sequence (P00698 19-147): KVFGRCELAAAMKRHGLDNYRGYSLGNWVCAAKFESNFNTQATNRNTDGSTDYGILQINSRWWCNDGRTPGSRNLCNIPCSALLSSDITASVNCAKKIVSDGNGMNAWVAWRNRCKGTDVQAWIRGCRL

For (−)-epigallocatechin gallate [EGCG], the “quenching of intrinsic lysozyme fluorescence” value (lysozyme [1]; EX 280 nm, concentration-dependent (FIG. 5)) was “can quench the intrinsic fluorescence of lysozyme” and the “quenching of intrinsic lysozyme fluorescence at the same EGCG concentration” value (lysozyme [1]; free EGCG vs HA-EGCG (FIG. 7)) was “quenches intrinsic lysozyme fluorescence to a smaller degree than HA-EGCG”.

For “free lysozyme: lysozyme from chicken egg white, model protein”, the apparent lysozyme activity (lysozyme [2]; 0.001% w/v Triton-X, % of original activity of free lysozyme (FIG. 9b)) was 140% and the “maximum apparent lysozyme activity (plateau)” value (lysozyme [2]; 0.01% and 0.1% Triton-X (FIG. 9b)) was “about 160%”.

B1: Granzyme: protease secreted by cytotoxic T lymphocytes, activates caspase and induces apoptosis (protein, UniProt P04187 21-247, looked up)
Granzyme B(G,H): IIGGHEVKPHSRPYMALLSIKDQQPEAICGGFLIREDFVLTAAHCEGSIINVTLGAHNIKEQEKTQQVIPMVKCIPHPDYNPKTFSNDIMLLKLKSKAKRTRAVRPLNLPRRNVNVKPGDVCYVAGWGRMAPMGKYSNTLQEVELTVQKDRECESYFKNRYNKTNQICAGDPKTKRASFRGDSGGPLVCKKVAAGIVSYGYKDGSPPRAFTKVSSFLSWIKKTMKSS
In the case of B1, the “cytotoxicity in HCT-116 cells” value (HCT-116 cells) is reported as “induced cytotoxicity in HCT-116 cells”.

Reference: US9226899B2, “Particulate hyaluronic acid and flavonoid formulations for cellular delivery of bioactive agents” (AGENCY FOR SCIENCE, TECHNOLOGY AND RESEARCH, priority 2009, dated 2016)
